Data on 167 variants can be found in the RNAGym collection of RNA variant scans (doi:10.7554/elife.80360).

To fix the notation:
B1: CPEB3 Ribozyme (parent)
chain: GGGGGCCACAGCAGAAGCGUUCACGUCGCGGCCCCUGUCAGAUUCUGGUGAAUCUGCGAAUUCUGCUGU

Variants of B1 are the subject of the series. Briefly: self-cleavage, relative activity (ratio to wild type); higher = more cleavage; co-transcriptional.
Regarding G3A U20A, the self-cleavage is 0.0708.

Turning to G3A A23G, the self-cleavage amounted to 0.401.

Regarding G3A A23C, the self-cleavage was determined as 0.525.

Consider G3A A40G, for which the self-cleavage worked out at 0.455.

G2U U61C: the self-cleavage is 0.0727.

G3C G11A: the self-cleavage came to 0.0327.

Consider G3C G11U, for which the self-cleavage was determined as 0.11.

On to G3C G11C, for which the self-cleavage came to 0.0692.

Consider G2U G37U, for which the self-cleavage came out at 0.0465.

As for G2U G37A, the self-cleavage was found to be 0.0373.

Regarding G3C C24U, the self-cleavage was 0.0425.

Regarding G3C C24G, the self-cleavage worked out at 0.0519.

Regarding G2U C66G, the self-cleavage was 0.0712.

As for G3C U43A, the self-cleavage worked out at 0.0425.

Regarding G3C U43G, the self-cleavage came out at 0.104.

Regarding G2U U36C, the self-cleavage was determined as 0.0828.

Regarding G2U U36A, the self-cleavage was 0.023.

Turning to G2U C35A, the self-cleavage turned out to be 0.256.

G3A C9G: the self-cleavage is 0.858.

In the case of G3A C9A, the self-cleavage was found to be 0.895.

For the variant G3C G4A, the self-cleavage was 0.0691.

For G3C G4U, the self-cleavage was 0.0461.

Take G3C G4C: the self-cleavage amounted to 0.137.

Take G2U U26G: the self-cleavage worked out at 0.0848.

For G2U U46A, the self-cleavage was 0.0474.

For G2U U46C, the self-cleavage came to 0.0853.

Take G3A A8U: the self-cleavage was found to be 0.697.

Take G2U G11A: the self-cleavage was found to be 0.049.

Regarding G2U G11U, the self-cleavage is 0.0835.

For G3C C32A, the self-cleavage came to 0.0311.

For G3A G28C, the self-cleavage was 0.0675.

In the case of G3A G28U, the self-cleavage was found to be 0.104.

For the variant G3A G28A, the self-cleavage is 0.113.

For the variant G2U G48U, the self-cleavage came to 0.0675.

As for G2U G48A, the self-cleavage was found to be 0.0985.

As to G3C C45U, the self-cleavage turned out to be 0.121.

G3C C45A: the self-cleavage came out at 0.0668.

On to G3C C12U, for which the self-cleavage is 0.0982.

Consider G3C C12A, for which the self-cleavage came out at 0.0611.

Consider G3A, for which the self-cleavage turned out to be 0.693.

For G3C, the self-cleavage stood at 0.147.

For the variant G2U U20C, the self-cleavage is 0.0329.

Take G2U U20G: the self-cleavage turned out to be 0.0171.

With G3A A60U, the self-cleavage worked out at 0.123.

For G2U U43C, the self-cleavage was 0.0688.

Consider G2U U43G, for which the self-cleavage was 0.0816.

With G2U U43A, the self-cleavage worked out at 0.118.

Regarding G2U U67G, the self-cleavage is 0.116.

For G2U U67A, the self-cleavage worked out at 0.127.

For G2U U67C, the self-cleavage is 0.107.

G2U U55A: the self-cleavage was determined as 0.0595.

Consider G3A A13G, for which the self-cleavage was 0.596.

For the variant G3A A13U, the self-cleavage was 0.339.

With G3C C66A, the self-cleavage is 0.0406.

For G3C C66G, the self-cleavage is 0.0391.

Regarding G3C C35U, the self-cleavage amounted to 0.0352.

Turning to G3A G68U, the self-cleavage worked out at 0.86.

Turning to G3A G68A, the self-cleavage was found to be 0.852.

As to G3A G68C, the self-cleavage worked out at 0.764.

For the variant G2U U69G, the self-cleavage is 0.109.

Take G3A U44G: the self-cleavage amounted to 0.331.

With G3A U44A, the self-cleavage was 0.54.

As to G3A U44C, the self-cleavage turned out to be 0.474.

Turning to G2U U62G, the self-cleavage was 0.0547.

Consider G3C A52U, for which the self-cleavage amounted to 0.075.

Take G3C A52C: the self-cleavage came to 0.0723.

As to G3C A52G, the self-cleavage was 0.0775.

Regarding G3A U67C, the self-cleavage came out at 0.819.

G3A U67G: the self-cleavage turned out to be 0.818.

With G2U C57A, the self-cleavage is 0.0471.

On to G2U C57G, for which the self-cleavage was found to be 0.0241.

Regarding G2U G68A, the self-cleavage was 0.128.

G2U G68C: the self-cleavage amounted to 0.1.

G2U G68U: the self-cleavage worked out at 0.106.

On to G3A C32G, for which the self-cleavage came out at 0.176.

As for G3A C32U, the self-cleavage is 0.302.

For G3A C32A, the self-cleavage was 0.191.

In the case of G2U G41A, the self-cleavage came to 0.0653.

Consider G3A A15C, for which the self-cleavage was 0.308.

Take G3A A15G: the self-cleavage worked out at 0.635.

With G3A A15U, the self-cleavage is 0.337.

Turning to G3A C66U, the self-cleavage was determined as 0.724.

On to G3A C66A, for which the self-cleavage was found to be 0.442.

As for G3A C66G, the self-cleavage amounted to 0.597.

Regarding G3A C34G, the self-cleavage stood at 0.256.

On to G3A C34A, for which the self-cleavage worked out at 0.516.

Take G2U G56A: the self-cleavage was found to be 0.0814.

On to G2U G56U, for which the self-cleavage was 0.0789.

For the variant G2U G56C, the self-cleavage turned out to be 0.0334.

As for G2U G3C, the self-cleavage was 0.0704.

For G2U G3A, the self-cleavage amounted to 0.0298.

For the variant G2U U38G, the self-cleavage stood at 0.0441.

Regarding G3C G28A, the self-cleavage stood at 0.0239.

Consider G3C G28C, for which the self-cleavage worked out at 0.0181.

As for G3C U21C, the self-cleavage amounted to 0.058.

On to G3C U21A, for which the self-cleavage was 0.072.

G3C U21G: the self-cleavage came to 0.

Regarding G3C A51G, the self-cleavage stood at 0.0762.

Consider G3C A51C, for which the self-cleavage stood at 0.0422.

Regarding G2U U21A, the self-cleavage is 0.0838.

With G2U U21G, the self-cleavage was 0.0462.

With G3C U46C, the self-cleavage came to 0.126.

On to G3C U46A, for which the self-cleavage stood at 0.113.

With G3C A60G, the self-cleavage was determined as 0.0121.

With G3C A60C, the self-cleavage was 0.0624.

As to G3C U36G, the self-cleavage came out at 0.329.

On to G3C U36C, for which the self-cleavage stood at 0.0612.

Turning to G3C U36A, the self-cleavage worked out at 0.0318.

Turning to G3C C57U, the self-cleavage was found to be 0.015.

Take G3C C57A: the self-cleavage was 0.0768.

For the variant G3C C57G, the self-cleavage stood at 0.0873.

As to G2U G47C, the self-cleavage stood at 0.0826.

G2U G47U: the self-cleavage turned out to be 0.059.

As for G3C U26G, the self-cleavage was 0.0558.

With G3C U26C, the self-cleavage was 0.0733.

On to G3C G30C, for which the self-cleavage amounted to 0.0279.

As for G3C G30A, the self-cleavage came out at 0.0737.

Take G2U G65C: the self-cleavage was determined as 0.0564.

As to G2U G65U, the self-cleavage was 0.0743.

Regarding G3A U69A, the self-cleavage was found to be 0.847.

In the case of G3A U69G, the self-cleavage turned out to be 0.793.

G3A G30C: the self-cleavage worked out at 0.103.

Turning to G3A G30A, the self-cleavage worked out at 0.181.

G3A C7U: the self-cleavage was 0.298.

G2U U64A: the self-cleavage came out at 0.0856.

On to G3A U46G, for which the self-cleavage was determined as 0.688.

Take G3C C29G: the self-cleavage was found to be 0.0545.

Take G2U G19U: the self-cleavage stood at 0.0651.

Turning to G2U G19A, the self-cleavage was 0.0693.

G2U G19C: the self-cleavage came to 0.0206.

As for G3A A42G, the self-cleavage was determined as 0.584.

Consider G3A A42C, for which the self-cleavage was 0.338.

G3A A42U: the self-cleavage was found to be 0.394.

G2U G4C: the self-cleavage was found to be 0.0426.

With G2U G4U, the self-cleavage was 0.0539.

For G2U G31C, the self-cleavage is 0.061.

As for G2U G31U, the self-cleavage stood at 0.0654.

As to G3A U21A, the self-cleavage was 0.455.

Turning to G3A U21G, the self-cleavage is 0.129.

Turning to G3A U21C, the self-cleavage came out at 0.371.

As for G2U G5U, the self-cleavage worked out at 0.0421.

With G3A C24A, the self-cleavage is 0.153.

Consider G3A C24G, for which the self-cleavage came out at 0.0795.

With G3A C24U, the self-cleavage came out at 0.188.

For G3A G17U, the self-cleavage came out at 0.0783.

On to G3A G17C, for which the self-cleavage came out at 0.0537.

Regarding G3A G17A, the self-cleavage was 0.0767.

On to G3A A51C, for which the self-cleavage is 0.413.

Regarding G3A A51U, the self-cleavage was found to be 0.651.

For G2U G25A, the self-cleavage turned out to be 0.0393.

As to G2U G25C, the self-cleavage was found to be 0.0157.

With G2U G25U, the self-cleavage is 0.0175.

With G3C C34G, the self-cleavage was 0.783.

Regarding G3C C27G, the self-cleavage stood at 0.06.

As to G3C C27U, the self-cleavage was found to be 0.0443.

On to G3A G25U, for which the self-cleavage was 0.054.

For G3A C29A, the self-cleavage is 0.149.

In the case of G3A C29U, the self-cleavage worked out at 0.145.

Consider G3A C29G, for which the self-cleavage is 0.122.

On to G2U G28C, for which the self-cleavage was 0.0331.

Turning to G2U G28A, the self-cleavage stood at 0.0437.

Take G2U G17A: the self-cleavage worked out at 0.0534.

On to G3C A15C, for which the self-cleavage was found to be 0.0371.

G3C A15G: the self-cleavage turned out to be 0.113.

Regarding G3A C63G, the self-cleavage came out at 0.317.

In the case of G3A C63A, the self-cleavage came out at 0.331.

For the variant G3A C18U, the self-cleavage came to 0.349.
